In the supplement of paper PMC12636428:

Tested on: Saccharomyces cerevisiae
Experiment: transcriptional activation domain activity (GFP:mCherry ratio, weighted mean of sorted bins, harmonized to initial dataset scale) (arbitrary fluorescence ratio units); higher = stronger transcriptional activation
Conditions: beta-estradiol 1 µM; induction time 4 h
Outline: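 Protein tiles carrying barcodes and fused to an estradiol-inducible synthetic transcription factor were placed at the URA3 locus of yeast diploids with a GFP reporter. Following 4 hours at 30 °C in SC with 1 uM beta-estradiol, cells were sorted into 8 GFP:mCherry bins, barcodes were sequenced, and tiles with fewer than 50 reads were discarded. Activation activity is given as the read-weighted mean of bin median fluorescence, averaged across barcodes and linearly mapped to the initial dataset scale.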

SRPPRPSASSSTTPRARSRSTARPSRARWPRPRCPSSGGCTRACRTRRCTRRM
transcriptional activation domain activity: 45300

SRPSTAPKPAPNPSPETTVTSISTPSEKRKRGRKPKAKPVEVPVSQTSGADSL
transcriptional activation domain activity: 20600

SRRAHSSDRDEARSARRRGRDRSRSRNRSRSWSRHRHRHRSHSRDAPAAAAAR
transcriptional activation domain activity: 22600

SRREDGVKVEDADDGGVSLEKGVEDLNIDNNNGKKEKGGVFVHCAAGKSRSVS
transcriptional activation domain activity: 43100

SRRPAKKVKEEGEKKAASGDKKGRGKALSEKSKPDAKGSKAKSKHKKDSDSEE
transcriptional activation domain activity: 24900

SRSGGGNGKPAGSGKNGSSQLKEVASRSRRRGDSDDDDRKGGSTRSGGGSRKV
transcriptional activation domain activity: 34000

SRSRKGRGRRRRGSKASRGSRSSRGSAASSANTSDSSSSSSSSDSDDSSSSSS
transcriptional activation domain activity: 18200

SRSRSRDRHRRSSRRHRRRSPSASRSRSASRSRRRRHSKRRSREKRHSSRRHR
transcriptional activation domain activity: 30200

SRSRSRRRKSSRRRRRDRSEDAESDDHRARRRHKSRKHSSRAGDDEDGKGRSR
transcriptional activation domain activity: 26100

SRTTSLGVWFLVIQMIWYGLFGALYIWFFCQDWYLFDVHLVFDYLMRFILCLM
transcriptional activation domain activity: 40700

SRVMRHFSAVEAGCFLWIWILVRIEGGMLLVNLYLDTTRITSTILNLYTACTG
transcriptional activation domain activity: 78500

SRVSLTVFRFSYVWLSLIFAIPLLCAVLIELYFLMPLHAWMGPSEPHVVHLIQ
transcriptional activation domain activity: 46800

SRVVYRDGRRHHYCVTSFDVLSSGILYIICGALDNIWLVTIERVVLSIMACRV
transcriptional activation domain activity: 81500

SRWFLVLFLLPYPRASPFFLVLYLFSLILHSRPCLYCIVLLTVLFTSSCYWAP
transcriptional activation domain activity: 53600

SSAAAGSSGNASRAAMDVDGEVDADADENRRRSTRASAGRKKAGSAVKKAGTG
transcriptional activation domain activity: < 6570

SSAASAGGEGEGKDGKRKKDGQEEEEEEDKGSKKVKKNDGGAKQTKEGAKTSD
transcriptional activation domain activity: < 6570

SSACASRSSPSSSCGSPSTSCAGAAARASPPRRCSARPCPRRRRAASPTASTS
transcriptional activation domain activity: 10100

SSAKDIEGDGDGADVIRNNRLAKRSTAGVKVKKHVAQIIKMRKVTPRSIAYIA
transcriptional activation domain activity: 40000

SSATASAADAATTDAASGSLEARKKKDDKKKGDKKKGKKGDKKGGKKAASTTA
transcriptional activation domain activity: 12500

SSATDSNPNTNLEDSLFFDHDLLSSSITNTNNGQGSNNGRQASKDDTLNLLDT
transcriptional activation domain activity: 37900

SSCAPIPMVDFDINESNMVMGNYFDDFASFMDNVPIPNSVFSPSYQPLFAFLP
transcriptional activation domain activity: 114000

SSDEEEEPRPKGKGKGKAAVVKAKPKPVAEKGNNAGGKRKRDADSEADGGAAK
transcriptional activation domain activity: 44000

SSDYSIAQFRFLLKLLLVHGRWNYVRICKYILGTFYKEFMFYLTQLIYQRNTM
transcriptional activation domain activity: 39600

SSEEEDEEDEEEEEEEEEEEAPPKKRAKTKGTVLYCYIFSPFFVPATVNPAID
transcriptional activation domain activity: 56700

SSEESSSEDDDGDVKMADAKPAANGIYIYLSSINRLINPLQFQVSVKPTRMSL
transcriptional activation domain activity: 47200

SSEGGEENKAEEAELEKADKPKEETTEEKKSEEEKPEEKKPEEKKPEETKAEN
transcriptional activation domain activity: 18500

SSEYEIGRPSEEEVTMTRMLDKVLRRSDAVDKESLCILAGQRVWHLRLTLHCL
transcriptional activation domain activity: 45500

SSFFFFSFFPGPFLLLYLWICLYPFFLFLGHPFSLGFFLLNYLLFSTATLVAG
transcriptional activation domain activity: 36200

SSFVLCLLQCLDVPSLVELTVRRVNSRLRLLLSCKVLLAGLVRLAIHGDIEMA
transcriptional activation domain activity: 52200

SSGDERQKHQTKSSSKKSREKSKKAAGRNKAEEAKTNDGRKSTRKPSKRTRST
transcriptional activation domain activity: 24900

SSGGDSGGDDTTTTTKKSRPRHHHLAHHHLHHLHHLHYLHHFHHHTHQHDDHL
transcriptional activation domain activity: 22900

SSGGEKGGAKETEKTPKWYVDGIRYGRATDMKLVKHLISLRVHLSTASLVWIE
transcriptional activation domain activity: 86800

SSGGGSTSESESESESEIEEDESKGEREGEGEKEKKKKKKKKGEEKAQHARRD
transcriptional activation domain activity: 31700

SSHCLLENDMFVFFANCSVNQLAMGEDMHHILRLCYSAELIKVLLTYLGRSTF
transcriptional activation domain activity: 56400

SSIRQMLKISLVRPLHMLLTEPVLFLFAVSLHPFRPRIYLMLEAIPLVFTRLY
transcriptional activation domain activity: 40900

SSIVYLHPPLLHCLFLFPLLLLRLLAILAFSFLYLINLVLGTLGSCFSFFFRD
transcriptional activation domain activity: 34600

SSKHDYKRSRRSKTKDEDDDDDDEDRKRRKRRKEREHSKKKEKEERRSVLTGK
transcriptional activation domain activity: 30300

SSKISCIHHVALKPSSGRYKRVTIIFNIIKAKRHLVTNSLRLMGLLLAIALYI
transcriptional activation domain activity: 53000

SSLMQYTLGATIGFVQSLEVRTQVLHLLVKLFQSLPQPDHFSIAQCYVYLNAP
transcriptional activation domain activity: 57200

SSLSSSSFIKSHPGPDPFQQLSSAEHPNNHSSDDEHSGSQPLPLDSITIGIPP
transcriptional activation domain activity: 53200

SSLTSIESMGSVMDESGEEEEEDVIYEVKRARTHSMEVQQARLVSWEGAGMKL
transcriptional activation domain activity: 42300

SSNFQTIDNENNVKTPGNKLTDFFQQQSAGWIEGNSSNDDFFGWFDMNMEQGF
transcriptional activation domain activity: 133000

SSNGEEQSINNKNDIDDNSAYRRNNFRNSSNSGSHTFQLSDLDLDVDMRMDSA
transcriptional activation domain activity: 41100

SSNGRKSSKRRSRDKDEDEDEDEEDRKRRKRRRERERSKEKEERRSVLTGKKI
transcriptional activation domain activity: 27200

SSPKKKGASKSDSAGRGNTAAAAKGRGKAKANAKGSPKKGGGGSARKRRKTAE
transcriptional activation domain activity: 41100

SSPNTGGGLFGSGGTTSAFGANTTSGFGSTSNTGAFGAKTGAFGATTSAGGGL
transcriptional activation domain activity: 35800

SSPSIQTASSVSTVLVVGSNDKTVKDVGEGLKTKLGVKGGGKGPRWSGKFIGV
transcriptional activation domain activity: 19700

SSPSSQTSSSTSVVLVFGLEEKRVKEAGEQLKSKLGVKGGGKGPRWSGKFVGV
transcriptional activation domain activity: 51600

SSPVVVSKIEDKNTEDKGADVKKTEESKKEEKTEVKQESKPEEKAEAKSEEKK
transcriptional activation domain activity: 29300

SSQPTKKPTPTTTTTTTTTTTTTTTTTTTTTEKPHTTHHTTHTTTTTTTKKAE
transcriptional activation domain activity: 36700

SSQTPVLLWIIHFILPNLCILLYFTLQLIYLLRHHKSKWLIGDLVHSYCFYFI
transcriptional activation domain activity: 81000

SSQVARLHQSWQHSIRVPFALVANYDHPLPWLLQHYVPLYMPALLFRFHILTF
transcriptional activation domain activity: 50100

SSRKEDKSERRHRHRHRSRSRDRDQRHRRHHRSDSRERNQDGDGERRRRHRRS
transcriptional activation domain activity: 26700

SSRRTKKSRRRRRGSSSSSSEAPSRKQRKAAASSSDEEQDRRARRKGKGKGRV
transcriptional activation domain activity: 30800

SSRSRSVSRQPPSPHEEEQEDAEEREAEDGKGGGGEGEREHQSRESSPAPART
transcriptional activation domain activity: 27100

SSRYDPVKSVFLPLDPMPLPRDFFFSFALILFCPSPFYTSLLSLYLISPLLFP
transcriptional activation domain activity: 60800

SSRYIQTSTLTRLLLTYRQWIFVVVYSHLLLLDHSSQIWWRWMNIFFTLVIWS
transcriptional activation domain activity: 62300

SSSAESSKASSSKKVASTKPKSKSAGTKAKPAAKKPAKKAAPKKKKPAKRAAK
transcriptional activation domain activity: 34500

SSSDFVPVNFEADSLPYTPTTLDGLASLTSLEDLFSADDALASFDWSEWPWIY
transcriptional activation domain activity: 156000

SSSEDDGKAGEGSSSSSDSEKARGRKKAKKSKEKGKGKATEGNSSSSSSDDDS
transcriptional activation domain activity: 21100

SSSEDESDEEDEEGLGSDVEIHDQAEPAEDVPAGEVSRRFAVVNLDWDHVRAV
transcriptional activation domain activity: 32200

SSSEEEVEVEVDKKTGVKRKRVKKQKVKKDVHNLVWSVVSQKKVFTDCWLGVL
transcriptional activation domain activity: 91900

SSSEEGEDGKGKDKEKHGFRARAKSFTRRKSDAGSRAPSRTGRKRSDSTATAA
transcriptional activation domain activity: 24500

SSSEEGSDGEEGDGEKDKDAKEKDGKDADGDVDMDADGKPKPKKAKPKKSTKK
transcriptional activation domain activity: 31500

SSSGTPQAKSSSPSSTAASTKAPTSSATKPTSTGSCRKKRSNSTQRRSRTSRM
transcriptional activation domain activity: 45400

SSSKKRKAVEVEEEEEEEEEEEEPVEEPEVEKEKEIVAAPVAKKAKVTAAATS
transcriptional activation domain activity: 29300

SSSKSAADVAAGEGKKTEKAGEKKEGTAAAAEKKKIEEKPAREEKKEEEKVPV
transcriptional activation domain activity: 24300

SSSKSKPIPDAKKRKSSASKPKSASSADRDTKRSGSRPESGKKSSTSSRSSKS
transcriptional activation domain activity: 22900

SSSNQQTRTRDGPKKKKANRACLHCQKAHLTCDDSRPCQRCVRRGMANSCTEG
transcriptional activation domain activity: 29900

SSSNSGGGGGVPEHILARVGYAVVSGLHFLKTKLNVIHRDVKPSNVLCSRAGD
transcriptional activation domain activity: 42900

SSSRRRSQSPAAEASRSRRERSRDRSDAEDEGGSRSGSRRRRRRGSAEPREED
transcriptional activation domain activity: 41600

SSSSASSSSASARGRKTQAARSTKKRKRRDAVSSANKDEDNDSDASNDEDEDE
transcriptional activation domain activity: 27500

SSSSEPIVLPVPVPVKRGRGRPKGAKNKPKLCEEKKQEEEEERERERERERGT
transcriptional activation domain activity: 12200

SSSSKKQNQSADGERKKPKKTDGAEKGESVRRKSDSGGKSVKSEEKTTKGIQK
transcriptional activation domain activity: 28800
